Biological target: FITC-labeled alanine-extended version of the β2AR C-terminal peptide (TNDSLLA) (human)
Assay: fluorescence polarisation

Kd: > 100 µM
Substance: SNX27 PDZ domain, wild type (residues 39-131 of rat SNX27) (from UniProt Q8K4V4 39-131) (domain or fragment)
